From the supplement of paper PMC10567573

B1: STK38L (parent)
chain: RQLAYSTVGTPDYIAPEVFMQTGY
B2: FCHO1 (parent)
chain: HLELTRKLQDLIKDVLRYGEEQLK

Variants of: B1
Experiment: protein stability index of a GFP-peptide fusion (GPS, HEK-293T) (PSI 1-6); higher = more stable
Settings: c terminus: a fixed tail appended
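Also: lentivirally expressed fusions sorted by FACS into six bins by GFP to DsRed ratio, PSI derived from sequencing read proportions per bin multiplied by bin number.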

Variant	protein stability index
RRLAYSTVGTPDYIAPEVFMQTGY [Q2R]	3.34
RILAYSTVGTPDYIAPEVFMQTGY [Q2I]	1.61
RSLAYSTVGTPDYIAPEVFMQTGY [Q2S]	2.4
RWLAYSTVGTPDYIAPEVFMQTGY [Q2W]	1.27
RDLAYSTVGTPDYIAPEVFMQTGY [Q2D]	2.69
RCLAYSTVGTPDYIAPEVFMQTGY [Q2C]	2.42
RVLAYSTVGTPDYIAPEVFMQTGY [Q2V]	1.46
RPLAYSTVGTPDYIAPEVFMQTGY [Q2P]	2.5
RGLAYSTVGTPDYIAPEVFMQTGY [Q2G]	1.84
RNLAYSTVGTPDYIAPEVFMQTGY [Q2N]	2.16
RYLAYSTVGTPDYIAPEVFMQTGY [Q2Y]	1.88
RELAYSTVGTPDYIAPEVFMQTGY [Q2E]	2.3
RMLAYSTVGTPDYIAPEVFMQTGY [Q2M]	2.03
RTLAYSTVGTPDYIAPEVFMQTGY [Q2T]	2.53
RALAYSTVGTPDYIAPEVFMQTGY [Q2A]	2.45
RLLAYSTVGTPDYIAPEVFMQTGY [Q2L]	1.7
RKLAYSTVGTPDYIAPEVFMQTGY [Q2K]	2.54
RFLAYSTVGTPDYIAPEVFMQTGY [Q2F]	2.55
RQLEYSTVGTPDYIAPEVFMQTGY [A4E]	2.8
RQLGYSTVGTPDYIAPEVFMQTGY [A4G]	2.86
RQLWYSTVGTPDYIAPEVFMQTGY [A4W]	1.64
RQLKYSTVGTPDYIAPEVFMQTGY [A4K]	3.29
RQLDYSTVGTPDYIAPEVFMQTGY [A4D]	2.38
RQLFYSTVGTPDYIAPEVFMQTGY [A4F]	1.89
RQLTYSTVGTPDYIAPEVFMQTGY [A4T]	2.55

Variant	protein stability index
RQLRYSTVGTPDYIAPEVFMQTGY [A4R]	2.75
RQLHYSTVGTPDYIAPEVFMQTGY [A4H]	2.61
RQLQYSTVGTPDYIAPEVFMQTGY [A4Q]	3.1
RQLYYSTVGTPDYIAPEVFMQTGY [A4Y]	2.17
RQLVYSTVGTPDYIAPEVFMQTGY [A4V]	2.02
RQLPYSTVGTPDYIAPEVFMQTGY [A4P]	2.39
RQLNYSTVGTPDYIAPEVFMQTGY [A4N]	2.52
RQLIYSTVGTPDYIAPEVFMQTGY [A4I]	1.77
RQLCYSTVGTPDYIAPEVFMQTGY [A4C]	2.14
RQLLYSTVGTPDYIAPEVFMQTGY [A4L]	2.69
RQLMYSTVGTPDYIAPEVFMQTGY [A4M]	2.6
RQLSYSTVGTPDYIAPEVFMQTGY [A4S]	2.65
RQLAMSTVGTPDYIAPEVFMQTGY [Y5M]	2.95
RQLASSTVGTPDYIAPEVFMQTGY [Y5S]	2.93
RQLATSTVGTPDYIAPEVFMQTGY [Y5T]	2.51
RQLAQSTVGTPDYIAPEVFMQTGY [Y5Q]	3.43
RQLAASTVGTPDYIAPEVFMQTGY [Y5A]	3.06
RQLAGSTVGTPDYIAPEVFMQTGY [Y5G]	3.03
RQLADSTVGTPDYIAPEVFMQTGY [Y5D]	3.59
RQLAVSTVGTPDYIAPEVFMQTGY [Y5V]	2.36
RQLAISTVGTPDYIAPEVFMQTGY [Y5I]	2.83
RQLANSTVGTPDYIAPEVFMQTGY [Y5N]	3.26
RQLAKSTVGTPDYIAPEVFMQTGY [Y5K]	2.58
RQLARSTVGTPDYIAPEVFMQTGY [Y5R]	2.81
RQLAWSTVGTPDYIAPEVFMQTGY [Y5W]	2.13

Variant	protein stability index
RQLACSTVGTPDYIAPEVFMQTGY [Y5C]	2.38
RQLALSTVGTPDYIAPEVFMQTGY [Y5L]	2.84
RQLAPSTVGTPDYIAPEVFMQTGY [Y5P]	3.42
RQLAFSTVGTPDYIAPEVFMQTGY [Y5F]	2.44
RQLAESTVGTPDYIAPEVFMQTGY [Y5E]	3.13
RQLAHSTVGTPDYIAPEVFMQTGY [Y5H]	3.07
RQLAYSNVGTPDYIAPEVFMQTGY [T7N]	2.51
RQLAYSKVGTPDYIAPEVFMQTGY [T7K]	2.41
RQLAYSVVGTPDYIAPEVFMQTGY [T7V]	2.04
RQLAYSCVGTPDYIAPEVFMQTGY [T7C]	2.07
RQLAYSAVGTPDYIAPEVFMQTGY [T7A]	2.76
RQLAYSRVGTPDYIAPEVFMQTGY [T7R]	2.52
RQLAYSFVGTPDYIAPEVFMQTGY [T7F]	1.62
RQLAYSHVGTPDYIAPEVFMQTGY [T7H]	2.44
RQLAYSIVGTPDYIAPEVFMQTGY [T7I]	2.04
RQLAYSQVGTPDYIAPEVFMQTGY [T7Q]	3.12
RQLAYSYVGTPDYIAPEVFMQTGY [T7Y]	2.07
RQLAYSSVGTPDYIAPEVFMQTGY [T7S]	2.11
RQLAYSLVGTPDYIAPEVFMQTGY [T7L]	2.1
RQLAYSWVGTPDYIAPEVFMQTGY [T7W]	1.79
RQLAYSPVGTPDYIAPEVFMQTGY [T7P]	3.26
RQLAYSMVGTPDYIAPEVFMQTGY [T7M]	1.84
RQLAYSDVGTPDYIAPEVFMQTGY [T7D]	2.26
RQLAYSGVGTPDYIAPEVFMQTGY [T7G]	2.62
RQLAYSEVGTPDYIAPEVFMQTGY [T7E]	3.02

Variants of: B2
Experiment: as above
Settings: c terminus: a fixed tail appended

Variant	protein stability index
HLELTRKLQDLIKDVLRYGEEQTK [L23T]	3.42
HLELTRKLQDLIKDVLRYGEEQYK [L23Y]	2.29
HLELTRKLQDLIKDVLRYGEEQLS [K24S]	2.66
HLELTRKLQDLIKDVLRYGEEQLC [K24C]	1.63
HLELTRKLQDLIKDVLRYGEEQLQ [K24Q]	2.48
HLELTRKLQDLIKDVLRYGEEQLH [K24H]	3.16
HLELTRKLQDLIKDVLRYGEEQLT [K24T]	1.6
HLELTRKLQDLIKDVLRYGEEQLV [K24V]	4.54
HLELTRKLQDLIKDVLRYGEEQLY [K24Y]	2.8
HLELTRKLQDLIKDVLRYGEEQLI [K24I]	2.67
HLELTRKLQDLIKDVLRYGEEQLN [K24N]	3.69
HLELTRKLQDLIKDVLRYGEEQLM [K24M]	2.79
HLELTRKLQDLIKDVLRYGEEQLL [K24L]	2.8
HLELTRKLQDLIKDVLRYGEEQLA [K24A]	1.59
HLELTRKLQDLIKDVLRYGEEQLG [K24G]	1.01
HLELTRKLQDLIKDVLRYGEEQLD [K24D]	1.84
HLELTRKLQDLIKDVLRYGEEQLF [K24F]	2.05
HLELTRKLQDLIKDVLRYGEEQLE [K24E]	1.44
HLELTRKLQDLIKDVLRYGEEQLP [K24P]	2.02
